Molecular target: T1, Izumo1-3xFLAG (mouse, UniProt Q9D9J7 22-397)
T1 construct: Izumo sperm-egg fusion protein 1, mouse; open reading frame amplified from murine testis cDNA; source: HEK293T, transfected, in lysate (CHAPSO); not shown: 3xFLAG, C-terminal, kept
T1 sequence (looked up): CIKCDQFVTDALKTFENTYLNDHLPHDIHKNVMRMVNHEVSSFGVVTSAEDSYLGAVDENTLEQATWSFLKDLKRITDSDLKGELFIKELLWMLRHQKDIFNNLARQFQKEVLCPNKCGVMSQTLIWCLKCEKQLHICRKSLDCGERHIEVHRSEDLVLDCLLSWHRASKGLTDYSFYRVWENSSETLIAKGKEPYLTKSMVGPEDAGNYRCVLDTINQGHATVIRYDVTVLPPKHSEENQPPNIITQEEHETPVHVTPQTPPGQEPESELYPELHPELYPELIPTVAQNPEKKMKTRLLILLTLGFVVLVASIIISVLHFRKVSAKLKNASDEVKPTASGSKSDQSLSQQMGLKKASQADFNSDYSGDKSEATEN
Experiment: co-IP; CHAPSO lysates of transfected HEK293T cells; 3xFLAG-tagged bait precipitated with anti-FLAG beads; with or without coexpressed C11orf94-3xmyc; Western blot
Settings: partners not purified

- fold change of the co-precipitation in the presence of C11orf94-3xmyc against its absence: ~1.7 fold
B1: murine ACE3 equipped with a C-terminal HA-tag (natural protein, mouse, UniProt D0G895 24-737, looked up)
chain: VGETSLNDFYSEAQAKLFLQFYEQTAQVVLNEFMEATWNYVTNITKQNQKNMLQKEADRSQFMLYFSTRARMFRTDHFLNQDVKRMLRKLQNIDKSALPTEDLLEYNRLLTYMETAYNRAEVCLDEGPCLTLEPDLQEIMATSRDQKELLWAWQGWRDAVGRQLRPVFEDYVRLSNKAAQYNGYKDMGALWRSKYESDTLEEDLEQLYKELQPLYLNLHAYVRRSLYRYYGPELIDLRGPIPAHLLGNMWAQSWNNILDLVLPYPTKAPEDITAIMKIQHWRPEKMFEEANLFFTSMGMLPAPPAFWIKSMMEKPADGREVECHTSSWNFYKFNDFRVKKCTEVTLEDLLSVFHQMGHIQYFLQYQNLSVIYQEGASPAFEEAVGSVIALSVSSHKYLLARGLLSQPHQDSEEEVNFLLGIALEKIAFIPFSYLVDKFRWKIFDGTISKITYNQEWWNFRLKYQGLCPPVPRSDDDFDPGAKFHIPANVPYIRYFLGLILQFQLHEALCEASGHVGPLHQCDNYNSKVAGKILGDLLKLGSSRPWREVLQEVTGESNISTKAFLTYFKPLMDWLVTENVKQGDTLGWPDFSCSFEEKITSKVSFLGTDTEPEQAYLGQWVLLSMSFFMLVLILALGFRLHYLEKQLLDEDTMILKTLPYSYFLGIAMEPHQAARKQWLLLGLCCILMLCCIGLLIRIVTQNTENTPWMKNEGQS
notes: Angiotensin-converting enzyme 3 (ACE3), mouse; open reading frame amplified from murine testis cDNA; also called ACE3-HA; angiotensin-converting enzyme 3; source: HEK293T, transiently transfected, in lysate (CHAPSO); not shown: HA, C-terminal, kept

Reference: article PMC9374335, “C11orf94/Frey is a key regulator for male fertility by controlling Izumo1 complex assembly” (Science Advances, 2022)
